Results reported in EP4545563A1 (Foreseen Technology (Beijing) Co., Ltd., dated 2024).

T1: ITGA2-His (human, UniProt P17301 30-1132, limits assumed)
T1 construct: also called ITGA2 protein; not shown: His tag
T1 sequence (looked up): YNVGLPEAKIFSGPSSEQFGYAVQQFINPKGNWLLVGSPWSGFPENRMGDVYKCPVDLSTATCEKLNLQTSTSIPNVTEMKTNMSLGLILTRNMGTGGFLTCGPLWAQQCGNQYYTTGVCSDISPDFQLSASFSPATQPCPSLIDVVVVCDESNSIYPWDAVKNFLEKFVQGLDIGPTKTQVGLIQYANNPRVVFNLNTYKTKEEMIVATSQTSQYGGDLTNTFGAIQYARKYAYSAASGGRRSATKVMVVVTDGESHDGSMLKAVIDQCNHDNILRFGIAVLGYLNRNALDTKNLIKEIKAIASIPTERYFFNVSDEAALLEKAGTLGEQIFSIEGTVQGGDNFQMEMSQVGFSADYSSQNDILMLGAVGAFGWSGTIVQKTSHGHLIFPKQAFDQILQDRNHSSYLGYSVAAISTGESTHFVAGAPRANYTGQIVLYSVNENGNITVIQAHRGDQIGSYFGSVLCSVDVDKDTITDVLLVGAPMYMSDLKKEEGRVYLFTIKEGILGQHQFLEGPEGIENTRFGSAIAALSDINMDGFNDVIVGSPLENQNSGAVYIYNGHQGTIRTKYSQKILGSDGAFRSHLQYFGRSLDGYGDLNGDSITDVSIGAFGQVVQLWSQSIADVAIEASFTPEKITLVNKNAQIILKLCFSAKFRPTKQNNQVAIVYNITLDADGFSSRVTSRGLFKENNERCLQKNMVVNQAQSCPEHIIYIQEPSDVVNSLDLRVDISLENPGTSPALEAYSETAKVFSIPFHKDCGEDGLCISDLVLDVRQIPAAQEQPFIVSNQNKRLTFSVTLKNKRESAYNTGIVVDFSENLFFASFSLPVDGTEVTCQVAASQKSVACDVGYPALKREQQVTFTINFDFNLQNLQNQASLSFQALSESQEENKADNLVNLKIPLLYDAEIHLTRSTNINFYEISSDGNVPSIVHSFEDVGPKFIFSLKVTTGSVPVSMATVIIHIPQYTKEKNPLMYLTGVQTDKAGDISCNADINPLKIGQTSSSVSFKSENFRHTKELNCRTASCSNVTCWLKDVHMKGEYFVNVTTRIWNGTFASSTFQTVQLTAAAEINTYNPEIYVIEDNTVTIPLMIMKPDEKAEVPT

T2: ITGA2 protein on the surface of human tumor cells (HuCCT1, A431) (human, UniProt P17301 30-1181)
T2 construct: whole, on cells; Endogenously expressed on the cell lines; the cell line of each entry is named under assay or readout; also called Integrin alpha-2; ITGA2-positive HuCCT1 cells
T2 sequence (looked up): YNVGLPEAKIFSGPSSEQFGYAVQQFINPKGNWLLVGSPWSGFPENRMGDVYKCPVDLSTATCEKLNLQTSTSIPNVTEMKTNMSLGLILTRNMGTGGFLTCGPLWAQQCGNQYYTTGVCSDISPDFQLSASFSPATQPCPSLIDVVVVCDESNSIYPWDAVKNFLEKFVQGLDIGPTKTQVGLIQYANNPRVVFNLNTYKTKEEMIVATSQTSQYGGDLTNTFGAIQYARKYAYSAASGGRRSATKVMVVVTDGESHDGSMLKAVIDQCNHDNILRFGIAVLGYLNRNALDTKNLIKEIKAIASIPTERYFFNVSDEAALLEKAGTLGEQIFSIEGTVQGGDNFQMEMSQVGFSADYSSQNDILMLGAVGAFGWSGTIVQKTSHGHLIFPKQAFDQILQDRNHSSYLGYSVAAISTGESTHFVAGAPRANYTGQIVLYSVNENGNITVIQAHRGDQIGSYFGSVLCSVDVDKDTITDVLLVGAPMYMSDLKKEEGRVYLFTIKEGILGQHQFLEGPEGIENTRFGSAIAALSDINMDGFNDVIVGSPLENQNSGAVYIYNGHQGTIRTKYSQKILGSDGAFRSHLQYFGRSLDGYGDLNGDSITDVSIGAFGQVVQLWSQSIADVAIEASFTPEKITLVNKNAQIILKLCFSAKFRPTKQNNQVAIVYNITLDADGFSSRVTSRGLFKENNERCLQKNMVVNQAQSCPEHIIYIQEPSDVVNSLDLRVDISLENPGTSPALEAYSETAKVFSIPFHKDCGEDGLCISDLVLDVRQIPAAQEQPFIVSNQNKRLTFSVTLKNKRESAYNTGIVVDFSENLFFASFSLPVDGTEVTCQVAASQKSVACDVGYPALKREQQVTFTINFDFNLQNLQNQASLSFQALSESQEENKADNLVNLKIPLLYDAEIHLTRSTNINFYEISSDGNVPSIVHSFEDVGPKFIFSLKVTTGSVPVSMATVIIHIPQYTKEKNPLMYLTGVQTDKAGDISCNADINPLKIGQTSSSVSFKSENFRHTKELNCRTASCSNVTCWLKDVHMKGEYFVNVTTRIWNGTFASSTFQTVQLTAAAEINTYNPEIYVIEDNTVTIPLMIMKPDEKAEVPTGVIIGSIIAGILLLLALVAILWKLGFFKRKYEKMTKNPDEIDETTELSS

B1: Humanized antibody FS002-B27 (antibody, human IgG1, kappa, V domains shown)
VH: QVQLVQSGAEVKKPGSSVKVSCKASGGTFSSYAISWVRQAPGQGLEWMGRIIPILGIANYAQKFQGRVTITADKSTSTAYMELSSLRSEDTAVYYCARAEGSSWYYFDYWGQGTLVTVSS
VL: NIQLTQSPSSVSASVGDRVTITCRASQGFSRWLAWYQQKPGKAPKLLIYGASSLQSGVPSRFSGSGSGTDFTLTISSLQPEDFATYYCQQANSFPLTFGGGTKLEIKR
notes: IgG1 heavy chain, kappa light chain
B2: FS002-A1-vc-MMAE (antibody, V domains shown)
VH: QVQLVQSGAEVKKPGASVKVSCKASGYTFTSYYMHWVRQAPGQGLEWMGIINPSGGSTSYAQKFQGRVTMTRDTSTSTVYMELSSLRSEDTAVYYCARDISGSYQTDAFDIWGQGTMVTVSS
VL: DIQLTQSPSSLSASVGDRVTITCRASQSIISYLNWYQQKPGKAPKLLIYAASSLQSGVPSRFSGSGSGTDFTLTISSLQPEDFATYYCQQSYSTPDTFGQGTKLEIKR
modifications: vc-MMAE (mc-vc-PAB-MMAE) linker-payload conjugated after TCEP reduction, DAR 3.4 for the whole antibody; sites not stated
B3: Humanized antibody FS002-C11 (antibody, human IgG1, kappa, V domains shown)
VH: RLQLQESGPRLVKPSETLSLTCSVSGGSISSRNHYWAWIRQPPGKGLEWIGYIYYSGSTYYNPSLKSRVTISVDTSKNQFSLKLSSVTAADTAVYYCARVGLLLRDFDYWGQGTLVTVSS
VL: DIQMIQSPSSVSASVGDRVTITCRASQGISNSLAWYQHKPGTTPKLLIYAASSLQGGVPSRFSGSSSETDFTLTISSLQPEDFATYYCQQANSFPITFGQGTRLDIKR
notes: as for B1
B4: FS002-A36-vc-MMAE (antibody, human IgG1, kappa, V domains shown)
VH: QVQLQESGPGLVKPSQTLSLTCTVSGGSISSGGYYWSWIRQHPGKGLEWIGYIYYSGSTYYNPSLKSRVTISVDTSKNQFSLKLSSVTAADTAVYYCARVRLLGGGFDIWGQGTTVTVSS
VL: EIVLTQSPATLSLSPGERATLSCRASQSVSTYLAWYQQKPGQAPRLLIYDTSIRATGIPARFSGSGSGTDFTLTISSLEPEDFAVYYCQQRSNWPLTFGGGTKVEIKR
modifications: vc-MMAE (mc-vc-PAB-MMAE) linker-payload conjugated after TCEP reduction, DAR 3.8 for the whole antibody; sites not stated
B5: Humanized antibody FS002-A5 (antibody, human IgG1, kappa, V domains shown)
VH: QVQLQDSGPGLVKPSQTLSLTCTVSGGSISSGGYYWSWIRQHPGKGLEWIGYIYYSGSTYYNPSLKSRVTISVDTSKNQFSLKLSSVTAADTAVYYCARVPVPLVGAFDIWGQGTMVTVSS
VL: EIVLTQSPATLSLSPGERATLSCRASQSVSSNLGWYQQKPGQAPSLLIYGASNRATGIPARFSGSGSGTDFTLTISSLEPEDFAVYYCQQRDTWPLTFGGGTKVEIKR
notes: as for B1
B6: Humanized antibody FS002-A66 (antibody, human IgG1, kappa, V domains shown)
VH: EVQLVESGGGVVQPGRSLRLSCAASGFTFSSYAMHWVRQAPGKGLEWVAVISYDGSNKYYVDSVKGRFTISRDNSKNTLYLQMNSLRAEDTAVYYCARDRITYLDYYYYGMDVWGQGTTVTVSS
VL: EIVLTQSPAILSLSPGERATLSCRASQSVSEYLAWYQQKPGQAPRLLIYDISNRATGIPARFSGSGSETDFTLTISSLEPEDFAVYYCQQRRTWPLTFGPGTKVDIKR
notes: as for B1
B7: FS002-A15-vc-MMAE (antibody, human IgG1, kappa, V domains shown)
VH: RLQLQESGPGLVKPSQTLSLTCTVSGGSISSGGYYWSWIRQHPGKGLEWIGYIYYSGSTYYNPSLKSRVTISVDTSKNQFSLKLSSVTAADTAVYYCARATIYGYFDYWGQGTLVTVSS
VL: EIVLTQSPATLPLSPGERATLSCRASQSVGFYLAWYQQKPGQPPRLLFYDASKRATGIPARFSASGSGTDFTLTISGLEPEDFAVYYCQHRISWPLTFGQGTKVEVKR
modifications: vc-MMAE (mc-vc-PAB-MMAE) linker-payload conjugated after TCEP reduction, DAR 2.9 for the whole antibody; sites not stated
B8: Humanized antibody FS002-A72 (antibody, human IgG1, kappa, V domains shown)
VH: QVQLVDSGGGLVQPGGSLRLSCVASGFAFSNYEMNWVRQAPGKGLEWVSYISSSSSYTNYADSVKGRFTISRDNAKNSLYLQMNSLRAEDTAVYYCARAQVRDAFDIWGQGTTVTVSS
VL: IVMTQSPVTLSVSPGDSATLSCRASQSVDKNLAWYQQKTGQAPRLLIYGAATRATGIPARFSGSGSGTEFTLTISSLRSEDFAVYYCQQYRNWPWTFGLGTKVEIKR
notes: as for B1

What was measured:
ITGA2-His = target: T1, ITGA2-His; assay: ELISA, plate coated with 2 ug/mL ITGA2-His, anti-human IgG-Fc-HRP detection
[1] = target: T2, ITGA2 protein on the surface of human …; assay: flow cytometry on HuCCT1 cells, goat anti-human IgG (H+L) secondary antibody
[2] = target: T2, ITGA2 protein on the surface of human …; assay: cell-based or functional assay

Row | Binder | EC50 (ITGA2-His) [nM] | EC50 [1] [nM] | A431 cell killing IC50 [2] [nM] | HuCC-T1 cell killing IC50 [2] [nM]
1 | B1 | 0.571 | 2.75 | – | –
2 | B2 | – | – | 0.14 | 0.14
3 | B3 | 0.035 | 0.747 | – | –
4 | B4 | – | – | 0.02 | 0.08
5 | B5 | 0.032 | 1.27 | – | –
6 | B6 | 0.031 | 2.35 | – | –
7 | B7 | – | – | 0.2 | 0.2
8 | B8 | 0.259 | 17.2 | – | –
